Key:
Experiment in all cases: peptide or protein array; ProtoArray human protein Microarray v5.0 (over 9000 human proteins arrayed) probed with recombinant sEng in two replicates; detection with anti-endoglin mAb SN6h and HRP secondary antibody; hits with Z-score >=2.0 in both arrays
Conditions in all cases: both partners purified
[1] = biological target: T1, Cell cycle associated protein 1 (CAPRIN1), transcript variant 1 (human, UniProt Q14444-1 1-709)
T1 construct: human CAPRIN1, transcript variant 1; source: bought: ProtoArray human protein Microarray v5.0 (Life Technologies), individually purified and arrayed
T1 sequence (looked up): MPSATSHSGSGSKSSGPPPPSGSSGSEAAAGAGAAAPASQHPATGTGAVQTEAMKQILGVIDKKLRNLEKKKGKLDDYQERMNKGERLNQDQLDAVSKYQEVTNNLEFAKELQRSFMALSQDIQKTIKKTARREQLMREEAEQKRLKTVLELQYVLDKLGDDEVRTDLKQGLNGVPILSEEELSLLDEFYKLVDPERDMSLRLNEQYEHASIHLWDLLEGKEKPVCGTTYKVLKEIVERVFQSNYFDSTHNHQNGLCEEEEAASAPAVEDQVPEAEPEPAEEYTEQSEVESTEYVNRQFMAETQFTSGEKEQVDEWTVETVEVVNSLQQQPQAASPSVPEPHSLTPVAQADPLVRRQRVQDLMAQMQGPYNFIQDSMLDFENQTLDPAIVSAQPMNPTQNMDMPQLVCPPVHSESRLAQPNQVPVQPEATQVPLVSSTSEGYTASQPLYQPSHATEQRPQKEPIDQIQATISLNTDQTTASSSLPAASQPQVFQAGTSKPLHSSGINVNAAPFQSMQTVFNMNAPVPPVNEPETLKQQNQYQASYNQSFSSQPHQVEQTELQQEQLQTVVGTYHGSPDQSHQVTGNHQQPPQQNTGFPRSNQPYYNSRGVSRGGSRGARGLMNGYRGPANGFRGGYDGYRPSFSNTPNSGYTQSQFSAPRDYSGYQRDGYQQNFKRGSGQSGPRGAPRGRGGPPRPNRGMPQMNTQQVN

[2] = biological target: T2, YTH domain family, member 2 (YTHDF2) (human, UniProt Q9Y5A9 1-579)
T2 construct: human YTHDF2; source: bought: ProtoArray human protein Microarray v5.0 (Life Technologies), individually purified and arrayed
T2 sequence (looked up): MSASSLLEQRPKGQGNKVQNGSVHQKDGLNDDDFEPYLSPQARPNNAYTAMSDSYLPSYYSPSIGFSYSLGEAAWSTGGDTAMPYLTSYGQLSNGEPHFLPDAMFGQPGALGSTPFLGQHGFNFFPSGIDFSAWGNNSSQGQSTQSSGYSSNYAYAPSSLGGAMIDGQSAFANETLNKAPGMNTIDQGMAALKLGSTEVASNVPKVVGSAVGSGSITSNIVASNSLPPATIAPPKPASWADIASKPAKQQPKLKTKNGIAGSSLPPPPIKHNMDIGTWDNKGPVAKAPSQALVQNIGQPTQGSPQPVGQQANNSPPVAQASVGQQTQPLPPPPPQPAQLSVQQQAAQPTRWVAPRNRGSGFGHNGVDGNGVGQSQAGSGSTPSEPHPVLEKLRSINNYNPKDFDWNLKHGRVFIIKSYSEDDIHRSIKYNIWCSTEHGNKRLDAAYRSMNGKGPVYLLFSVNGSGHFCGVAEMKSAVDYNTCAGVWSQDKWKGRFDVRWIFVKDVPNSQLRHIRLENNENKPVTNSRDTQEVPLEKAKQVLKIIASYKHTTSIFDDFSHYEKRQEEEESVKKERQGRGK

[3] = biological target: T3, Lamin A/C (LMNA), transcript variant 2 (human, UniProt P02545-2 1-572)
T3 construct: source: bought: ProtoArray human protein Microarray v5.0 (Life Technologies), individually purified and arrayed
T3 sequence (looked up): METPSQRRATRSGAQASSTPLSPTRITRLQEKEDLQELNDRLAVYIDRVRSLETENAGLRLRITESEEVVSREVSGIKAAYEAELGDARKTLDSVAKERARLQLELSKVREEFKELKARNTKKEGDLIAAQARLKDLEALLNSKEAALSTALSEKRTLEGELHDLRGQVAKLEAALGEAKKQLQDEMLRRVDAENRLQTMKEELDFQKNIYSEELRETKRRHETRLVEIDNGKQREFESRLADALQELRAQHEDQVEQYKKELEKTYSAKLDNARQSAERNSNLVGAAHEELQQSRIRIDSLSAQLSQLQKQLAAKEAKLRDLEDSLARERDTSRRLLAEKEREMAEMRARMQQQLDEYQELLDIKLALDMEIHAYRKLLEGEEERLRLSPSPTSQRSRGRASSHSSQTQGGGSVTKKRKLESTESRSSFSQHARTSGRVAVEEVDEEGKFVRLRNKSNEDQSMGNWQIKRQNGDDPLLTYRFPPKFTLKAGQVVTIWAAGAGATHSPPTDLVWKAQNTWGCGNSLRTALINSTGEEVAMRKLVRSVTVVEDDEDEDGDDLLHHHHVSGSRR

[4] = biological target: RNA polymerase-associated protein RTF1 homolog (RTF1) (human, UniProt Q92541 1-710)

- binding result [1]: binds
- binding result [2]: binds
- binding result [3]: binds
- binding result [4]: binds
B1: recombinant human soluble endoglin (sEng; Glu26-Gly586) (domain or fragment, UniProt P17813 26-586, looked up)
chain: ETVHCDLQPVGPERGEVTYTTSQVSKGCVAQAPNAILEVHVLFLEFPTGPSQLELTLQASKQNGTWPREVLLVLSVNSSVFLHLQALGIPLHLAYNSSLVTFQEPPGVNTTELPSFPKTQILEWAAERGPITSAAELNDPQSILLRLGQAQGSLSFCMLEASQDMGRTLEWRPRTPALVRGCHLEGVAGHKEAHILRVLPGHSAGPRTVTVKVELSCAPGDLDAVLILQGPPYVSWLIDANHNMQIWTTGEYSFKIFPEKNIRGFKLPDTPQGLLGEARMLNASIVASFVELPLASIVSLHASSCGGRLQTSPAPIQTTPPKDTCSPELLMSLIQTKCADDAMTLVLKKELVAHLKCTITGLTFWDPSCEAEDRGDKFVLRSAYSSCGMQVSASMISNEAVVNILSSSSPQRKKVHCLNMDSLSFQLGLYLSPHFLQASNTIEPGQQSFVQVRVSPSVSEFLLQLDSCHLDLGPEGGTVELIQGRAAKGNCVSLLSPSPEGDPRFSFLLHFYTVPIPKTGTLSCTVALRPKTGSQDQEVHRTVFMRLNIISPDLSGCTSKG
notes: human endoglin (CD105), extracellular domain, Glu26-Gly586; The same bought protein was the probe of the array and the analyte of the BLI; also called recombinant human endoglin/CD105 protein; source: bought: R&D Systems (1097-EN), purified recombinant

Reference: article PMC6769930, “Endoglin Protein Interactome Profiling Identifies TRIM21 and Galectin-3 as New Binding Partners” (Cells, 2019)
